Test results as given in patent US20140341917A1 (Merck KGaA, published 2014).

What was measured:
human PD-L1 [1] = target: T1, human PD-L1 (human, UniProt Q9NZQ7 19-238, limits assumed); assay: Biacore kinetic profile
T1 construct: Protein used in the Biacore assays of 3.1

human PD-L1 [2] = target: T1, human PD-L1; assay: Biacore; relative to A09-188-1

T1 sequence (Q9NZQ7 19-238 limits assumed): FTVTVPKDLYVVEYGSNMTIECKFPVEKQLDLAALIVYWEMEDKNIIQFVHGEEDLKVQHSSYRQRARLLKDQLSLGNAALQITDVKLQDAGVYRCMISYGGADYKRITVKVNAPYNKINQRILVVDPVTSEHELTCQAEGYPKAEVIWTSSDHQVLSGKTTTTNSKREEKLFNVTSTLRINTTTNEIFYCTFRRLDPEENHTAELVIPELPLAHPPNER

B1: A09-202-1 (antibody, human IgG1, lambda, V domains shown)
VH: EVQLLESGGGLVQPGGSLRLSCAASGFTFSMYMMMWVRQAPGKGLEWVSSIYPSGGITFYADSVKGRFTISRDNSKNTLYLQMNSLRAEDTAIYYCARIKLGTVTTVDYWGQGTLVTVSS
VL: QSALTQPASVSGSPGQSITISCTGTSSDVGGYNYVSWYQQHPGKAPKLMIYDVSNRPSGVSNRFSGSKSGNTASLTISGLQAEDEADYYCSSYTSSSTRVFGTGTKVTVLG
notes: also called VL-A31G
- Kd (human PD-L1 [1]): 4150 pM
- t½ (human PD-L1 [1]): 0.313 h
- Relative KD (human PD-L1 [2]): 0.78

B2: A09-220-1 (antibody, human IgG1, lambda, V domains shown)
VH: EVQLLESGGGLVQPGGSLRLSCAASGFTFSSYLMFWVRQAPGKGLEWVSSIYPSGGITFYADTVKGRFTISRDNSKNTLYLQMNSLRAEDTAVYYCARIKLGTVTTVDYWGQGTLVTVSS
VL: QSALTQPASVSGSPGQSITISCTGTSSDVGAYNYVSWYQQHPGKAPKLMIYDVSNRPSGVSNRFSGSKSGNTASLTISGLQAEDEADYYCSSYTSSSTRVFGTGTKVTVLG
notes: also called VH-M31S, M33L, M35F, S63T, I93V
- t½ (human PD-L1 [1]): 1.14 h

B3: A09-245-2 (antibody, human IgG1, lambda, V domains shown)
VH: EVQLLESGGGLVQPGGSLRLSCAASGFTFSSYLMFWVRQAPGKGLEWVSSIYPSGGITFYADTVKGRFTISRDNSKNTLYLQMNSLRAEDTAVYYCARIKLGTVTTVDYWGQGTLVTVSS
VL: QSALTQPASVSGSPGQSITISCTGTSSDVGGYNYVSWYQQHPGKAPKLMIYDVSNRPSGVSNRFSGSKSGNTASLTISGLQAEDEADYYCSSYTSSSTRVFGTGTKVTVLG
notes: also called VL-A31G; VH-M31S, M33L, M35F, S63T, I93V
- t½ (human PD-L1 [1]): 1.29 h

B4: A09-211-1 (antibody, human IgG1, lambda, V domains shown)
VH: EVQLLESGGGLVQPGGSLRLSCAASGFTFSIYLMFWVRQAPGKGLEWVSSIYPSGGITFYADTVKGRFTISRDNSKNTLYLQMNSLRAEDTAVYYCARIKLGTVTTVDYWGQGTLVTVSS
VL: QSALTQPASVSGSPGQSITISCTGTSSDVGAYNYVSWYQQHPGKAPKLMIYDVSNRPSGVSNRFSGSKSGNTASLTISGLQAEDEADYYCSSYTSSSTRVFGTGTKVTVLG
notes: 193V read as I93V; also called VH-M31I, M33L, M35F, S63T, 193V
- t½ (human PD-L1 [1]): 1.82 h

B5: A09-222-1 (antibody, human IgG1, lambda, V domains shown)
VH: EVQLLESGGGLVQPGGSLRLSCAASGFTFSSYLMMWVRQAPGKGLEWVSSIYPSGGITFYADTVKGRFTISRDNSKNTLYLQMNSLRAEDTAVYYCARIKLGTVTTVDYWGQGTLVTVSS
VL: QSALTQPASVSGSPGQSITISCTGTSSDVGAYNYVSWYQQHPGKAPKLMIYDVSNRPSGVSNRFSGSKSGNTASLTISGLQAEDEADYYCSSYTSSSTRVFGTGTKVTVLG
notes: also called VH-M31S, M33L, S63T, I93V
- Kd (human PD-L1 [1]): 1240 pM
- t½ (human PD-L1 [1]): 0.785 h
- Relative KD (human PD-L1 [2]): 0.23

B6: A09-243-2 (antibody, human IgG1, lambda, V domains shown)
VH: EVQLLESGGGLVQPGGSLRLSCAASGFTFSIYLMMWVRQAPGKGLEWVSSIYPSGGITFYADTVKGRFTISRDNSKNTLYLQMNSLRAEDTAVYYCARIKLGTVTTVDYWGQGTLVTVSS
VL: QSALTQPASVSGSPGQSITISCTGTSSDVGGYNYVSWYQQHPGKAPKLMIYDVSNRPSGVSNRFSGSKSGNTASLTISGLQAEDEADYYCSSYTSSSTRVFGTGTKVTVLG
notes: also called VL-A31G; VH-M31I, M33L, S63T, I93V
- t½ (human PD-L1 [1]): 1.42 h

B7: A09-204-1 (antibody, human IgG1, lambda, V domains shown)
VH: EVQLLESGGGLVQPGGSLRLSCAASGFTFSIYIMFWVRQAPGKGLEWVSSIYPSGGITFYADTVKGRFTISRDNSKNTLYLQMNSLRAEDTAVYYCARIKLGTVTTVDYWGQGTLVTVSS
VL: QSALTQPASVSGSPGQSITISCTGTSSDVGAYNYVSWYQQHPGKAPKLMIYDVSNRPSGVSNRFSGSKSGNTASLTISGLQAEDEADYYCSSYTSSSTRVFGTGTKVTVLG
notes: positions counted from the N-terminus of the chain; also called VH-M31I, M33I, M35F, S63T, I93V
- Kd (human PD-L1 [1]): 100 pM
- t½ (human PD-L1 [1]): 9.64 h
- Relative KD (human PD-L1 [2]): 0.02

B8: A09-214-1 (antibody, human IgG1, lambda, V domains shown)
VH: EVQLLESGGGLVQPGGSLRLSCAASGFTFSIYIMMWVRQAPGKGLEWVSSIYPSGGITFYADTVKGRFTISRDNSKNTLYLQMNSLRAEDTAVYYCARIKLGTVTTVDYWGQGTLVTVSS
VL: QSALTQPASVSGSPGQSITISCTGTSSDVGAYNYVSWYQQHPGKAPKLMIYDVSNRPSGVSNRFSGSKSGNTASLTISGLQAEDEADYYCSSYTSSSTRVFGTGTKVTVLG
notes: 193V read as I93V; also called VH-M31I, M33I, S63T, 193V
- Kd (human PD-L1 [1]): 400 pM
- t½ (human PD-L1 [1]): 2.98 h
- Relative KD (human PD-L1 [2]): 0.08

B9: A09-219-1 (antibody, human IgG1, lambda, V domains shown)
VH: EVQLLESGGGLVQPGGSLRLSCAASGFTFSSYIMFWVRQAPGKGLEWVSSIYPSGGITFYADTVKGRFTISRDNSKNTLYLQMNSLRAEDTAVYYCARIKLGTVTTVDYWGQGTLVTVSS
VL: QSALTQPASVSGSPGQSITISCTGTSSDVGAYNYVSWYQQHPGKAPKLMIYDVSNRPSGVSNRFSGSKSGNTASLTISGLQAEDEADYYCSSYTSSSTRVFGTGTKVTVLG
notes: also called VH-M31S, M33I, M35F, S63T, I93V
- Kd (human PD-L1 [1]): 180 pM
- t½ (human PD-L1 [1]): 4.64 h
- Relative KD (human PD-L1 [2]): 0.03

B10: A09-240-2 (antibody, human IgG1, lambda, V domains shown)
VH: EVQLLESGGGLVQPGGSLRLSCAASGFTFSMYIMFWVRQAPGKGLEWVSSIYPSGGITFYADTVKGRFTISRDNSKNTLYLQMNSLRAEDTAVYYCARIKLGTVTTVDYWGQGTLVTVSS
VL: QSALTQPASVSGSPGQSITISCTGTSSDVGGYNYVSWYQQHPGKAPKLMIYDVSNRPSGVSNRFSGSKSGNTASLTISGLQAEDEADYYCSSYTSSSTRVFGTGTKVTVLG
notes: also called VL-A31G; VH-M33I, M35F, S63T, I93V
- Kd (human PD-L1 [1]): 160 pM
- t½ (human PD-L1 [1]): 4.1 h
- Relative KD (human PD-L1 [2]): 0.03

B11: A09-212-1 (antibody, human IgG1, lambda, V domains shown)
VH: EVQLLESGGGLVQPGGSLRLSCAASGFTFSMYIMFWVRQAPGKGLEWVSSIYPSGGITFYADTVKGRFTISRDNSKNTLYLQMNSLRAEDTAVYYCARIKLGTVTTVDYWGQGTLVTVSS
VL: QSALTQPASVSGSPGQSITISCTGTSSDVGAYNYVSWYQQHPGKAPKLMIYDVSNRPSGVSNRFSGSKSGNTASLTISGLQAEDEADYYCSSYTSSSTRVFGTGTKVTVLG
notes: 193V read as I93V; also called VH-M33I, M35F, S63T, 193V
- t½ (human PD-L1 [1]): 4.24 h

B12: A09-216-1 (antibody, human IgG1, lambda, V domains shown)
VH: EVQLLESGGGLVQPGGSLRLSCAASGFTFSIYLMMWVRQAPGKGLEWVSSIYPSGGITFYADTVKGRFTISRDNSKNTLYLQMNSLRAEDTAVYYCARIKLGTVTTVDYWGQGTLVTVSS
VL: QSALTQPASVSGSPGQSITISCTGTSSDVGAYNYVSWYQQHPGKAPKLMIYDVSNRPSGVSNRFSGSKSGNTASLTISGLQAEDEADYYCSSYTSSSTRVFGTGTKVTVLG
notes: 193V read as I93V; also called VH-M31I, M33L, S63T, 193V
- Kd (human PD-L1 [1]): 910 pM
- t½ (human PD-L1 [1]): 1.3 h
- Relative KD (human PD-L1 [2]): 0.17

B13: A09-242-2 (antibody, human IgG1, lambda, V domains shown)
VH: EVQLLESGGGLVQPGGSLRLSCAASGFTFSMYLMFWVRQAPGKGLEWVSSIYPSGGITFYADTVKGRFTISRDNSKNTLYLQMNSLRAEDTAVYYCARIKLGTVTTVDYWGQGTLVTVSS
VL: QSALTQPASVSGSPGQSITISCTGTSSDVGGYNYVSWYQQHPGKAPKLMIYDVSNRPSGVSNRFSGSKSGNTASLTISGLQAEDEADYYCSSYTSSSTRVFGTGTKVTVLG
notes: also called VL-A31G; VH-M33L, M35F, S63T, I93V
- Kd (human PD-L1 [1]): 760 pM
- t½ (human PD-L1 [1]): 0.927 h
- Relative KD (human PD-L1 [2]): 0.16

B14: A09-223-1 (antibody, human IgG1, lambda, V domains shown)
VH: EVQLLESGGGLVQPGGSLRLSCAASGFTFSSYMMFWVRQAPGKGLEWVSSIYPSGGITFYADTVKGRFTISRDNSKNTLYLQMNSLRAEDTAVYYCARIKLGTVTTVDYWGQGTLVTVSS
VL: QSALTQPASVSGSPGQSITISCTGTSSDVGAYNYVSWYQQHPGKAPKLMIYDVSNRPSGVSNRFSGSKSGNTASLTISGLQAEDEADYYCSSYTSSSTRVFGTGTKVTVLG
notes: also called VH-M31S, M35F, S63T, I93V
- Kd (human PD-L1 [1]): 3620 pM
- t½ (human PD-L1 [1]): 0.225 h
- Relative KD (human PD-L1 [2]): 0.68

B15: A09-241-2 (antibody, human IgG1, lambda, V domains shown)
VH: EVQLLESGGGLVQPGGSLRLSCAASGFTFSIYIMMWVRQAPGKGLEWVSSIYPSGGITFYADTVKGRFTISRDNSKNTLYLQMNSLRAEDTAVYYCARIKLGTVTTVDYWGQGTLVTVSS
VL: QSALTQPASVSGSPGQSITISCTGTSSDVGGYNYVSWYQQHPGKAPKLMIYDVSNRPSGVSNRFSGSKSGNTASLTISGLQAEDEADYYCSSYTSSSTRVFGTGTKVTVLG
notes: also called VL-A31G; VH-M31I, M33I, S63T, I93V
- Kd (human PD-L1 [1]): 320 pM
- t½ (human PD-L1 [1]): 2.77 h
- Relative KD (human PD-L1 [2]): 0.07

B16: A09-244-2 (antibody, human IgG1, lambda, V domains shown)
VH: EVQLLESGGGLVQPGGSLRLSCAASGFTFSSYIMFWVRQAPGKGLEWVSSIYPSGGITFYADTVKGRFTISRDNSKNTLYLQMNSLRAEDTAVYYCARIKLGTVTTVDYWGQGTLVTVSS
VL: QSALTQPASVSGSPGQSITISCTGTSSDVGGYNYVSWYQQHPGKAPKLMIYDVSNRPSGVSNRFSGSKSGNTASLTISGLQAEDEADYYCSSYTSSSTRVFGTGTKVTVLG
notes: also called VL-A31G; VH-M31S, M33I, M35F, S63T, I93V
- Kd (human PD-L1 [1]): 120 pM
- t½ (human PD-L1 [1]): 4.66 h
- Relative KD (human PD-L1 [2]): 0.03

B17: A09-215-1 (antibody, human IgG1, lambda, V domains shown)
VH: EVQLLESGGGLVQPGGSLRLSCAASGFTFSMYLMFWVRQAPGKGLEWVSSIYPSGGITFYADTVKGRFTISRDNSKNTLYLQMNSLRAEDTAVYYCARIKLGTVTTVDYWGQGTLVTVSS
VL: QSALTQPASVSGSPGQSITISCTGTSSDVGAYNYVSWYQQHPGKAPKLMIYDVSNRPSGVSNRFSGSKSGNTASLTISGLQAEDEADYYCSSYTSSSTRVFGTGTKVTVLG
notes: 193V read as I93V; also called VH-M33L, M35F, S63T, 193V
- Kd (human PD-L1 [1]): 1280 pM
- t½ (human PD-L1 [1]): 0.843 h
- Relative KD (human PD-L1 [2]): 0.24

B18: A09-213-1 (antibody, human IgG1, lambda, V domains shown)
VH: EVQLLESGGGLVQPGGSLRLSCAASGFTFSIYMMFWVRQAPGKGLEWVSSIYPSGGITFYADTVKGRFTISRDNSKNTLYLQMNSLRAEDTAVYYCARIKLGTVTTVDYWGQGTLVTVSS
VL: QSALTQPASVSGSPGQSITISCTGTSSDVGAYNYVSWYQQHPGKAPKLMIYDVSNRPSGVSNRFSGSKSGNTASLTISGLQAEDEADYYCSSYTSSSTRVFGTGTKVTVLG
notes: 193V read as I93V; also called VH-M31I, M35F, S63T, 193V
- Kd (human PD-L1 [1]): 2510 pM
- t½ (human PD-L1 [1]): 0.462 h
- Relative KD (human PD-L1 [2]): 0.47

B19: A09-239-2 (antibody, human IgG1, lambda, V domains shown)
VH: EVQLLESGGGLVQPGGSLRLSCAASGFTFSIYLMFWVRQAPGKGLEWVSSIYPSGGITFYADTVKGRFTISRDNSKNTLYLQMNSLRAEDTAVYYCARIKLGTVTTVDYWGQGTLVTVSS
VL: QSALTQPASVSGSPGQSITISCTGTSSDVGGYNYVSWYQQHPGKAPKLMIYDVSNRPSGVSNRFSGSKSGNTASLTISGLQAEDEADYYCSSYTSSSTRVFGTGTKVTVLG
notes: also called VL-A31G; VH-M31I, M33L, M35F, S63T, I93V
- t½ (human PD-L1 [1]): 2 h
